The text below walks through data of PMC8049080.

Experiment [1] addresses dopamine D2 receptor, long isoform, p.Ile212Phe variant (UniProt P14416). Nature of the experiment: FRET or BRET; HEK293 cells 48 hours after transfection, in phosphate-buffered saline with 0.1 mM CaCl2 and 0.5 mM MgCl2, ~100,000 cells/well; quinpirole (20-minute stimulation) followed by coelenterazine h at room temperature; agonist-induced recruitment, expressed as percentage of maximum recruitment by D2-WT. For orientation: In BRET a luciferase serves as donor, and the signal depends on an acceptor being close.

The target in experiment [2] is dopamine D2 receptor, short isoform, p.Ile212Phe variant (UniProt P14416). Described as above.

Consider “arrestin3 (from UniProt P32121 1-409) (natural protein)”, for which the maximal recruitment, percent of that by D2L-WT in experiment [1] turned out to be 48%. For the same substance, the maximal recruitment, percent of that by D2S-WT in experiment [2] was 68%.
